# Key:
# [1] = target: α-elastin, a heterogeneous mixture of soluble peptides obtained from human lung; assay: ELISA; conditions: value read at the highest concentration, 20 µM protein added; immobilized α-elastin coated in bicarbonate buffer overnight; parent: est. 1.8; read off a plot
# Human plasma fibronectin = assay: ELISA; conditions: value read at the highest concentration, 20 µM protein added; immobilized Fn coated in bicarbonate buffer overnight; parent: est. 1.7; read off a plot
# [2] = target: Human fibrinogen, P02671-2;P02675;P02679-2; assay: ELISA; conditions: value read at the highest concentration, 16 µM protein added; immobilized human Fbg coated in bicarbonate buffer overnight; parent: est. 1.5; read off a plot
# [3] = target: GST-HK10_(544–563), GST fusion of the human K10 C-terminal tail region (UniProt P13645); assay: ELISA; conditions: value read at the highest concentration, 20 µM protein added; immobilized K10 (panel title GST-HK10 544-563) coated in bicarbonate buffer overnight; parent: est. 1.2; read off a plot
# [4] = target: GST-HK10_(544–563), GST fusion of the human K10 C-terminal tail region (UniProt P13645); assay: SPR; BIAcore X, 25°C; GST-HK10(544–563) (500 nM) captured on immobilised goat anti-GST IgG, GST alone on the reference cell; SpsD passed over in increasing concentrations, 5 µl/min; KD from equilibrium response
# [5] = target: α-elastin, a heterogeneous mixture of soluble peptides obtained from human lung (human); assay: SPR; BIAcore X, 25°C; ligand covalently immobilised on CM5 chip; SpsD passed over in increasing concentrations without regeneration, 5 µl/min, PBS with 0.005% Tween 20; KD from equilibrium response against concentration
# Human fibrinogen (human) = Human fibrinogen (human) (UniProt P02671); assay: as above
# [6] = target: Canine fibrinogen (canine) (UniProt P68213); assay: as above
# [7] = target: Human plasma fibronectin (human); assay: as above
# [8] = target: Mouse cytokeratin 10 (residues 1–570) (mouse) (UniProt P02535); assay: ELISA; mouse K10 proteins, GST-HK10(544–563) or GST coated on wells; increasing concentrations of SpsD167–519; detected with anti-SpsD37–519 IgG
# [9] = target: Mouse cytokeratin 10 C-terminal tail region (MK10_(454–570)) (mouse) (UniProt P02535); assay: as above
# [10] = target: N-terminal fragment of fibronectin (N29) containing the five N-terminal type I modules (human); assay: ELISA; Fn (1 µg/well) and Fn fragments (250 ng/well) coated; SpsD167–519 in solution, detected with anti-SpsD37–519 antibody; FnBPB163–480 as control, detected with anti-FnBPB163–480 IgG
# [11] = target: Recombinant fibronectin fragment, residues 1266–1908 (extra domain B plus type III modules 8–13 and the initial region of module 14) (UniProt P02751); assay: as above
# [12] = target: GST-Fbgγ_(395–411), GST fusion of the human Fbg γ-chain sequence (human) (UniProt P02679); assay: ELISA; GST-Fbg γ chain or GST coated on microtiter wells; increasing concentrations of SpsD167–519; detected with anti-6-His IgG
# Chain of GST-HK10_(544–563), GST fusion of the human K10 C-terminal tail region (P13645 544-563): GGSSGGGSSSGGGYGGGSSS
# Chain of Human fibrinogen (human) (P02671 other isoform, or with tags, fused parts or gaps, chain 1 of 3): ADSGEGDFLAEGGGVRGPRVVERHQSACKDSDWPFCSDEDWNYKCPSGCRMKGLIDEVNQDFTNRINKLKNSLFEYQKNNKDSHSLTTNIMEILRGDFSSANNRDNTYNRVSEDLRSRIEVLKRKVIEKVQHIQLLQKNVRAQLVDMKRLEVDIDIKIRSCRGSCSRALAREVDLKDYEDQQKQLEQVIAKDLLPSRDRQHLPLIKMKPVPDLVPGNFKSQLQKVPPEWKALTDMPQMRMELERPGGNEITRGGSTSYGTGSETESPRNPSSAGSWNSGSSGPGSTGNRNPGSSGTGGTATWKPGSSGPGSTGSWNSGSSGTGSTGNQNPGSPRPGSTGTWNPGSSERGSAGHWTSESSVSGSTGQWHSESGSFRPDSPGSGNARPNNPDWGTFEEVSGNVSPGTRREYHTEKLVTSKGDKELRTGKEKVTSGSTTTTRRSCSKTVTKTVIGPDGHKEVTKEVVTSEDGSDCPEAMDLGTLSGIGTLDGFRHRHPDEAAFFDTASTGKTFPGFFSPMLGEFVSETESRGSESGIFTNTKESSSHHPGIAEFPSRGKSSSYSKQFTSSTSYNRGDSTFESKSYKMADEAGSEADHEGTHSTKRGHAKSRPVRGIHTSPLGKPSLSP
# Chain of Human fibrinogen (human) (P02675 31-491, chain 2 of 3, further chain): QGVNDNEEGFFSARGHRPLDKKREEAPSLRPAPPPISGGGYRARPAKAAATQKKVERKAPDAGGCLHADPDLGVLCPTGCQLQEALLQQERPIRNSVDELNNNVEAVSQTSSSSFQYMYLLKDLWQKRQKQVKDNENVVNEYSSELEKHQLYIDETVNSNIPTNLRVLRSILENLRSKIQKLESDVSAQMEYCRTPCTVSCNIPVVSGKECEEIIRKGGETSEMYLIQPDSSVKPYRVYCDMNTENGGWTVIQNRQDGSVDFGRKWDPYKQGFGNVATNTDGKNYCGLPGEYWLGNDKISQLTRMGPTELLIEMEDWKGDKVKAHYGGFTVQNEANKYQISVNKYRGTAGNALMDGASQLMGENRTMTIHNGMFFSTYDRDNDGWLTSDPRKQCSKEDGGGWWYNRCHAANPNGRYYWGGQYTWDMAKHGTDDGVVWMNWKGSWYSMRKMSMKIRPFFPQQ
# Chain of Human fibrinogen (human) (P02679 other isoform, or with tags, fused parts or gaps, chain 3 of 3, further chain): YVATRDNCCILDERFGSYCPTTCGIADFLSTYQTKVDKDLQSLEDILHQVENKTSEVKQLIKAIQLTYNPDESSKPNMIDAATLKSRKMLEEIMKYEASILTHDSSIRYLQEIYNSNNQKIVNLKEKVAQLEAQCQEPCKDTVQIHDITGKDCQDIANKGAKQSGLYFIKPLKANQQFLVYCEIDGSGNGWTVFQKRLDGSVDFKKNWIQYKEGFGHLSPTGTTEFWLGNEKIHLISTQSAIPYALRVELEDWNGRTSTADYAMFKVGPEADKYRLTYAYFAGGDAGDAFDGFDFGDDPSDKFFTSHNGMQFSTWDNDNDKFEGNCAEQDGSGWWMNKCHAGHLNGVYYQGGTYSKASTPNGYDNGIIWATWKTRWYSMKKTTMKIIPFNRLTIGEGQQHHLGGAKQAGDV
# Chain of Mouse cytokeratin 10 (residues 1–570) (mouse) (P02535 whole entry, the tested form may be a part): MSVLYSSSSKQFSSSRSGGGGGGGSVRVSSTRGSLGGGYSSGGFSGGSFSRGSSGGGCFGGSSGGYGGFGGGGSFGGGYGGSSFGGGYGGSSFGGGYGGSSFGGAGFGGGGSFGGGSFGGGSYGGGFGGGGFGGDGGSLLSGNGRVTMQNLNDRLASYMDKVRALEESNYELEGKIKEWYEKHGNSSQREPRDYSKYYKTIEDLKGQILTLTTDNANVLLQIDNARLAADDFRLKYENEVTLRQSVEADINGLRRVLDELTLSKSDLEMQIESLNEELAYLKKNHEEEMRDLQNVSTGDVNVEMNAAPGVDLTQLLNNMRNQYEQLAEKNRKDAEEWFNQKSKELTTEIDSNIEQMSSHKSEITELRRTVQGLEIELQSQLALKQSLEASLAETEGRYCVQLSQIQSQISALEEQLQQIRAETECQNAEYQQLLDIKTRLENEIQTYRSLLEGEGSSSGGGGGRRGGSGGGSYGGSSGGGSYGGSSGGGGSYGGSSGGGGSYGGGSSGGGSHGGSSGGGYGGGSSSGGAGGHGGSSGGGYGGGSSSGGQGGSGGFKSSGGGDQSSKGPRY
# Chain of Recombinant fibronectin fragment, residues 1266–1908 (extra domain B plus type III modules 8–13 and the initial region of module 14) (P02751 1266-1908): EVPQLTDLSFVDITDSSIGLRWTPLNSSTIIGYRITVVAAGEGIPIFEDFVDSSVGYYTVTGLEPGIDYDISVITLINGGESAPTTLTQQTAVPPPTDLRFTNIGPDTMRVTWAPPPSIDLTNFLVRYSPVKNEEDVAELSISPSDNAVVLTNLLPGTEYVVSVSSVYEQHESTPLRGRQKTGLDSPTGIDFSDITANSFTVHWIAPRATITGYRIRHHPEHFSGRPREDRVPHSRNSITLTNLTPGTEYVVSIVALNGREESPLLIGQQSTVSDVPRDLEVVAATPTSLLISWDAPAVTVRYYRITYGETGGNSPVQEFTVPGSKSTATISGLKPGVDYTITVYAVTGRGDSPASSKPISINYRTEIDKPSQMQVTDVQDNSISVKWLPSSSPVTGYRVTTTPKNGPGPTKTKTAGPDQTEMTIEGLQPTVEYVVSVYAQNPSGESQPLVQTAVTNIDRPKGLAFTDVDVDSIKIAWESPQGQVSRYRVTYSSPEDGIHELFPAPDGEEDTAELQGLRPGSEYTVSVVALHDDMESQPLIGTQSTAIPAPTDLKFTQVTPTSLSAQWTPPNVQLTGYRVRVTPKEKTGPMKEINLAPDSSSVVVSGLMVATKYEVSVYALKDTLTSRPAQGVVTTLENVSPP
# Chain of Mouse cytokeratin 10 C-terminal tail region (MK10_(454–570)) (mouse) (P02535 454-570): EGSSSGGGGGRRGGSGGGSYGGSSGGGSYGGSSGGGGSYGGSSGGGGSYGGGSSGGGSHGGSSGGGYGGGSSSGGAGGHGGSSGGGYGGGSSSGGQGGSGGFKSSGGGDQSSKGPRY
Substance,response [1],response (Human plasma fibronectin),response [2],response [3],Kd [4],Kd [5],Kd (Human fibrinogen (human)),Kd [6],Kd [7],EC50 [8],EC50 [9],EC50 [10],EC50 [11],EC50 [12]
"SpsD_(167–519), N2N3 subdomains of the A domain of SpsD from S. pseudintermedius strain 326 F288A",0.67 A490,1.6 A490,0.11 A490,0.97 A490,,,,,,,,,,
"SpsD_(37–519), A domain (N1N2N3 region) of SpsD from S. pseudintermedius strain 326 (domain or fragment)",,,,,906 nM,1200 nM,380 nM,367 nM,2350 nM,,,,,
"SpsD_(167–519), N2N3 subdomains of the A domain of SpsD from S. pseudintermedius strain 326 (domain or fragment)",,,,,840 nM,1020 nM,360 nM,341 nM,2160 nM,1020 nM,1200 nM,2210 nM,1970 nM,320 nM

# Source: article PMC3689669
